Assay results from patent US20200216522A1 (DENALI THERAPEUTICS, published 2020).

Tests used:
Experiment in all cases: peptide array
Peptide_085 = biological target: T1, Peptide_085 (human)
T1 peptide: DSPQLATLADEVSAS
Method: (§1) Chimeric IgG antibodies were diluted to a concentration of 5 μg/mL in 3% bovine serum albumin in Tris-buffered saline (10 mM Tris, pH 7.5, 150 mM NaCl) supplemented with 0.05% Tween®20 (3% BSA-TBST). Diluted antibodies were allowed to bind to peptides printed onto slides for 2 hours at room temperature as described in the PepStar™ user manual (JPT Technologies). Following extensive washing (5×5 minutes with TBST), slides were incubated with secondary antibodies goat anti-human IgG, Alexa Fluor 568 conjugate, 1 μg/mL in 3% BSA-TBST) for 1 hour at room temperature. After extensive washing, (5×5 minutes with TBST, then 5×5 minutes with ultrapure water), slides were dried overnight and imaged using an Opera Phenix™ system in the 568 nm channel. Images were aligned to peptide array definition files using Galviewer software obtained from JPT Technologies and ImageJ software with control human IgG serving as landmarks.
(§2) Full-length human Tau (encoded by the microtubule-associated protein Tau isoform 2 gene (MAPT), amino acid sequence NCBI Reference Sequence No. NP_005901.2, SEQ ID NO: 1, variant designation “2N4R”) was divided into 15 amino acid peptides, offset by 5 amino acids (overlapping by 10 amino acids). Peptides were synthesized and covalently attached to silica slides in triplicate with a spot size of 0.5 mm (obtained from JPT Technologies, Berlin, Germany). Antibodies muIgG were diluted to a concentration of 30 μg/mL in 3% bovine serum albumin in Tris-buffered saline (10 mM Tris, pH 7.5, 150 mM NaCl) supplemented with 0.05% Tween® 20 (3% BSA-TBST). Diluted antibodies were allowed to bind to peptides printed onto slides for 2 hours at room temperature as described in the Pepstar™ user manual (JPT Technologies). Following extensive washing (5×5 min TBST), slides were incubated with secondary antibodies (donkey anti-mouse IgG, Alexafluor 647 conjugate, 5 μg/mL in 3% BSA-TBST) for 1 hour at room temperature. After extensive washing, (5×5 minutes TBST, 5×5 minutes ultrapure water), slides were dried under a stream of nitrogen and imaged on the Opera Phenix in the 647 nm channel. Images were aligned to peptide array definition file using Galviewer software obtained from JPT Technologies and ImageJ software with control mouse IgG serving as landmarks.

Peptide_077 = biological target: T2, Peptide_077 (human)
T2 peptide: NAKAKTDHGAEIVYK
Method: as §1, §2

Peptide_001 = biological target: T3, Peptide_001 (human)
T3 peptide: MAEPRQEFEVMEDHA
Method: as §1, §2

Peptide_050 = biological target: T4, Peptide_050 (human)
T4 peptide: APVPMPDLKNVKSKI
Method: as §1, §2

Peptide_044 = biological target: T5, Peptide_044 (human)
T5 peptide: PTPPTREPKKVAVVR
Method: as §1, §2

Peptide_064 = biological target: T6, Peptide_064 (human)
T6 peptide: SKVTSKCGSLGNIHH
Method: as §1, §2

Peptide_004 = biological target: T7, Peptide_004 (human)
T7 peptide: GTYGLGDRKDQGGYT
Method: as §1, §2

Peptide_019 = biological target: T8, Peptide_019 (human)
T8 peptide: AQPHTEIPEGTTAEE
Method: as §1, §2

Peptide_018 = biological target: T9, Peptide_018 (human)
T9 peptide: GKQAAAQPHTEIPEG
Method: as §1, §2

Peptide_030 = biological target: T10, Peptide_030 (human)
T10 peptide: DGKTKIATPRGAAPP
Method: as §1, §2

Peptide_024 = biological target: T11, Peptide_024 (human)
T11 peptide: DEAAGHVTQARMVSK
Method: as §1, §2

Peptide_063 = biological target: T12, Peptide_063 (human)
T12 peptide: KPVDLSKVTSKCGSL
Method: as §1, §2

Peptide_022 = biological target: T13, Peptide_022 (human)
T13 peptide: AGIGDTPSLEDEAAG
Method: as §1, §2

Peptide_032 = biological target: T14, Peptide_032 (human)
T14 peptide: GAAPPGQKGQANATR
Method: as §1, §2

Peptide_020 = biological target: T15, Peptide_020 (human)
T15 peptide: EIPEGTTAEEAGIGD
Method: as §1, §2

Peptide_076 = biological target: T16, Peptide_076 (human)
T16 peptide: LTFRENAKAKTDHGA
Method: as §1, §2

Peptide_046 = biological target: T17, Peptide_046 (human)
T17 peptide: VAVVRTPPKSPSSAK
Method: as §1, §2

Peptide_038 = biological target: T18, Peptide_038 (human)
T18 peptide: GEPPKSGDRSGYSSP
Method: as §1, §2

Peptide_043 = biological target: T19, Peptide_043 (human)
T19 peptide: RTPSLPTPPTREPKK
Method: as §1, §2

Peptide_068 = biological target: T20, Peptide_068 (human)
T20 peptide: QVEVKSEKLDFKDRV
Method: as §1, §2

Peptide_027 = biological target: T21, Peptide_027 (human)
T21 peptide: SKDGTGSDDKKAKGA
Method: as §1, §2

Peptide_075 = biological target: T22, Peptide_075 (human)
T22 peptide: IETHKLTFRENAKAK
Method: as §1, §2

Peptide_003 = biological target: T23, Peptide_003 (human)
T23 peptide: MEDHAGTYGLGDRKD
Method: as §1, §2

Peptide_002 = biological target: T24, Peptide_002 (human)
T24 peptide: QEFEVMEDHAGTYGL
Method: as §1, §2

Peptide_079 = biological target: T25, Peptide_079 (human)
T25 peptide: EIVYKSPVVSGDTSP
Method: as §1, §2

Peptide_017 = biological target: T26, Peptide_017 (human)
T26 peptide: DEGAPGKQAAAQPHT
Method: as §1, §2

Peptide_055 = biological target: T27, Peptide_055 (human)
T27 peptide: GGGKVQIINKKLDLS
Method: as §1, §2

Peptide_039 = biological target: T28, Peptide_039 (human)
T28 peptide: SGDRSGYSSPGSPGT
Method: as §1, §2

Peptide_074 = biological target: T29, Peptide_074 (human)
T29 peptide: GGNKKIETHKLTFRE
Method: as §1, §2

Peptide_056 = biological target: T30, Peptide_056 (human)
T30 peptide: QIINKKLDLSNVQSK
Method: as §1, §2

Peptide_025 = biological target: T31, Peptide_025 (human)
T31 peptide: HVTQARMVSKSKDGT
Method: as §1, §2

Peptide_006 = biological target: T32, Peptide_006 (human)
T32 peptide: QGGYTMHQDQEGDTD
Method: as §1, §2

process-control peptide = biological target: T33, process-control peptide
T33 construct: array control, not a Tau peptide
T33 peptide: GGSGGGSDYKDDDDK
Method: as §1, §2

Peptide_021 = biological target: T34, Peptide_021 (human)
T34 peptide: TTAEEAGIGDTPSLE
Method: as §1, §2

Peptide_033 = biological target: T35, Peptide_033 (human)
T35 peptide: GQKGQANATRIPAKT
Method: as §1, §2

Measured: binding result

B1: chimeric IgG clone 1A1 (antibody, V domains shown)
VH: EVQLQQSGAELVRPGASVRLSCTASGFNIKDSLMHWLKQRPEQGLEWIGWIDPEDGETKYAPKFQDKATITADTSSNTAYLQLSSLTSEDTAIYYCTRRDWEGPWGQGTLVTVSA
VL: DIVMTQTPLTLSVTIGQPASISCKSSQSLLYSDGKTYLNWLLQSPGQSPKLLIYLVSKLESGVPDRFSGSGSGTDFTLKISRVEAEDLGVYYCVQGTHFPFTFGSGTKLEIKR
notes: mouse-human chimeric IgG from HEK293; also called anti-Tau 1A1; anti-Tau^1A1
no binding (tested: 5 ug/mL): all assays above

B2: chimeric IgG clone 1G7 (antibody, V domains shown)
VH: EVQLQQSGAEVVRPGASVKLSCTTSGFNIKDSLMHWLKQRPEQGLEWIGWIDPEDGETKYAPKFQDKATITADTSSNTAYLQLSSLTSGDTAIYYCARRDWEGPWGQGTLVTVSA
VL: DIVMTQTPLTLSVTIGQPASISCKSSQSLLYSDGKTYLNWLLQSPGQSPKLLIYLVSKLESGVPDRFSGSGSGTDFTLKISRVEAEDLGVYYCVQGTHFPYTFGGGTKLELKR
notes: mouse-human chimeric IgG from HEK293
no binding (tested: 5 ug/mL): all assays above

B3: chimeric IgG clone 1A5 (antibody, V domains shown)
VH: EVQLQQSGAELVRPGASVKLSCTASGFNIKDSLIHWVKQRPEQGLEWIGWIDPEDGETKYAPKFQDKATKTADTSSNTAYLQLSSLTSEDTAIYYCASGEWDYWGQGTSVTVSS
VL: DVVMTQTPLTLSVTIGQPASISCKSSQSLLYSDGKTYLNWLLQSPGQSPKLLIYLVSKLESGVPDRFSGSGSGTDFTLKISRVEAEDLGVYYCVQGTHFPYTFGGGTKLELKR
notes: as for B2
no binding (tested: 5 ug/mL): all assays above
